Settings in all cases: both partners purified
For assay [1], the target named is T1, MukB Hinge, purified (36 kDa) (E. coli, UniProt P22523 566-863).
T1 construct: MukB, E. coli, residues 566-863 (Hinge construct); printed size 36 kDa; details of purification are in Supplementary Methods; source: E. coli C3013I, pET vector, purified
T1 sequence (looked up): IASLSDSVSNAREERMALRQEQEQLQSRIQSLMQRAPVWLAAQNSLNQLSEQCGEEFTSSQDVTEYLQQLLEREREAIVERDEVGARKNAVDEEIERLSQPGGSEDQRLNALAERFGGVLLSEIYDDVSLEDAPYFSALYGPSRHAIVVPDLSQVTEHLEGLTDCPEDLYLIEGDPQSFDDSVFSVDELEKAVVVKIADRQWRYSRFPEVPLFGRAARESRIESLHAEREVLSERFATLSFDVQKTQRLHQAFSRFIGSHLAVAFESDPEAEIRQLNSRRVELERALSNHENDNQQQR
The assay can be described thus: SEC; Superose 6 10/300 GL; 50 mM HEPES pH 7.5, 100 mM NaCl, 1 mM DTT, 1 mM EDTA, 5 mM MgCl2; MatPΔC18 (73 μM) and/or Hinge (15 μM); fractions on SDS-PAGE. In general terms: In gel filtration, larger molecules generally elute earlier.

Assay [2] deals with T2, Hinge–Flag (E. coli, UniProt P22523 566-863).
T2 construct: MukB, E. coli, residues 566-863 (Hinge construct); printed MW with Flag 35.2 kDa; Hinge proteins gave 2 bands on SDS-PAGE, maybe because of proteolytic cleavage; also called FLAG-tagged Hinge
T2 sequence (looked up): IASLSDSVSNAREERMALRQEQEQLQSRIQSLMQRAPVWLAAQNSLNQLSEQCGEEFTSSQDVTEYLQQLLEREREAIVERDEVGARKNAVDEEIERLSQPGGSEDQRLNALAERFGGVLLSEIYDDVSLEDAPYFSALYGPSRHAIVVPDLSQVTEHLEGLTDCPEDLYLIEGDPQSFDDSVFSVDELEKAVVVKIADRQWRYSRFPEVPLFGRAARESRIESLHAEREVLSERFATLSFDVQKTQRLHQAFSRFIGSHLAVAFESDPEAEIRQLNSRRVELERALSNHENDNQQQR
Briefly: co-IP; MukB–Flag or Hinge–Flag from cell lysate bound to anti-Flag M2 Affinity gel and washed; purified MatPΔC18-6×His added in 50 mM HEPES pH 7.5, 100 mM NaCl, 45 min, 4 °C; SDS-PAGE.

The target in assay [3] is T3, MukB–Flag (E. coli, UniProt P22523 1-1486).
T3 construct: MukB, E. coli; printed MW with Flag 171.7 kDa; The printed mass fits the whole protein; also called FLAG-tagged MukB
T3 sequence (looked up): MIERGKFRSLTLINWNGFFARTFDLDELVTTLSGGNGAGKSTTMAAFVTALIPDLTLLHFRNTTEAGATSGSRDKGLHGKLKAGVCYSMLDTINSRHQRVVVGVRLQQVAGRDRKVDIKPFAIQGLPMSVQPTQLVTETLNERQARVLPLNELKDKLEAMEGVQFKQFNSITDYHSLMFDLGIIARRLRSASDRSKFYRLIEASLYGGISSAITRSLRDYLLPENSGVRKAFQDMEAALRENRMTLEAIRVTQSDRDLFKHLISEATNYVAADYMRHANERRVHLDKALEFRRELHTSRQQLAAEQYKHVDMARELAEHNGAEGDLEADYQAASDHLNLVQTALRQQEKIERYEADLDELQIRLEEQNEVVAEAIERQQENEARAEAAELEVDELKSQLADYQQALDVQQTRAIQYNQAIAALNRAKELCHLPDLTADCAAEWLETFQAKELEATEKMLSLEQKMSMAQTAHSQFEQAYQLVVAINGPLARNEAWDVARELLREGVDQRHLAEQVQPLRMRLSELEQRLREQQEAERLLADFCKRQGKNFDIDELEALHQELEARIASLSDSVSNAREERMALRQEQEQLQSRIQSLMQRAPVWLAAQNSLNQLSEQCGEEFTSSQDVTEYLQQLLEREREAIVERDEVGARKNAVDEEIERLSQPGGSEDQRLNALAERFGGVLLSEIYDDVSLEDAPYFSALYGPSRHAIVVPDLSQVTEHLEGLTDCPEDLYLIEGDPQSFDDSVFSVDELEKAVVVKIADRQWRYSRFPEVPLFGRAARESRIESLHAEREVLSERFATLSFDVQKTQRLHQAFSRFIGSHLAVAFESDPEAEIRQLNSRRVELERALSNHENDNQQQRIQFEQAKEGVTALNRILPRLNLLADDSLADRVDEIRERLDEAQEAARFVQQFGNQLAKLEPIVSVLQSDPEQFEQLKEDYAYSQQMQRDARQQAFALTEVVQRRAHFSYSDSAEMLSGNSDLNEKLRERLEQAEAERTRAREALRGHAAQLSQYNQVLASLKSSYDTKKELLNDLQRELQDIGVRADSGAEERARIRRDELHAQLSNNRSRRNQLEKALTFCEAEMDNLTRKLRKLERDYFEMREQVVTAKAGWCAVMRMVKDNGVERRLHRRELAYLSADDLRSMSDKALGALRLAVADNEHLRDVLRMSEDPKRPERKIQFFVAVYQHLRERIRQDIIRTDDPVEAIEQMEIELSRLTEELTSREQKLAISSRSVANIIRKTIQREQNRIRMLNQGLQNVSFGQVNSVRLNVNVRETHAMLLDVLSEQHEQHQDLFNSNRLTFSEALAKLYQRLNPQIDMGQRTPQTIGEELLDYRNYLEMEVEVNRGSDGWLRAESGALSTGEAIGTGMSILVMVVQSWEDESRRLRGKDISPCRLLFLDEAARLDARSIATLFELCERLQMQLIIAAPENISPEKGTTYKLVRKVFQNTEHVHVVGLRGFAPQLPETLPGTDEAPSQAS
The assay is described as above.

The target in assay [4] is T4, MukB-6×His, purified (E. coli, UniProt P22523 1-1486).
T4 construct: MukB, E. coli; printed MW with 6×His 172.6 kDa; The printed mass fits the whole protein; source: E. coli C3013I, pET vector, purified
T4 sequence (looked up): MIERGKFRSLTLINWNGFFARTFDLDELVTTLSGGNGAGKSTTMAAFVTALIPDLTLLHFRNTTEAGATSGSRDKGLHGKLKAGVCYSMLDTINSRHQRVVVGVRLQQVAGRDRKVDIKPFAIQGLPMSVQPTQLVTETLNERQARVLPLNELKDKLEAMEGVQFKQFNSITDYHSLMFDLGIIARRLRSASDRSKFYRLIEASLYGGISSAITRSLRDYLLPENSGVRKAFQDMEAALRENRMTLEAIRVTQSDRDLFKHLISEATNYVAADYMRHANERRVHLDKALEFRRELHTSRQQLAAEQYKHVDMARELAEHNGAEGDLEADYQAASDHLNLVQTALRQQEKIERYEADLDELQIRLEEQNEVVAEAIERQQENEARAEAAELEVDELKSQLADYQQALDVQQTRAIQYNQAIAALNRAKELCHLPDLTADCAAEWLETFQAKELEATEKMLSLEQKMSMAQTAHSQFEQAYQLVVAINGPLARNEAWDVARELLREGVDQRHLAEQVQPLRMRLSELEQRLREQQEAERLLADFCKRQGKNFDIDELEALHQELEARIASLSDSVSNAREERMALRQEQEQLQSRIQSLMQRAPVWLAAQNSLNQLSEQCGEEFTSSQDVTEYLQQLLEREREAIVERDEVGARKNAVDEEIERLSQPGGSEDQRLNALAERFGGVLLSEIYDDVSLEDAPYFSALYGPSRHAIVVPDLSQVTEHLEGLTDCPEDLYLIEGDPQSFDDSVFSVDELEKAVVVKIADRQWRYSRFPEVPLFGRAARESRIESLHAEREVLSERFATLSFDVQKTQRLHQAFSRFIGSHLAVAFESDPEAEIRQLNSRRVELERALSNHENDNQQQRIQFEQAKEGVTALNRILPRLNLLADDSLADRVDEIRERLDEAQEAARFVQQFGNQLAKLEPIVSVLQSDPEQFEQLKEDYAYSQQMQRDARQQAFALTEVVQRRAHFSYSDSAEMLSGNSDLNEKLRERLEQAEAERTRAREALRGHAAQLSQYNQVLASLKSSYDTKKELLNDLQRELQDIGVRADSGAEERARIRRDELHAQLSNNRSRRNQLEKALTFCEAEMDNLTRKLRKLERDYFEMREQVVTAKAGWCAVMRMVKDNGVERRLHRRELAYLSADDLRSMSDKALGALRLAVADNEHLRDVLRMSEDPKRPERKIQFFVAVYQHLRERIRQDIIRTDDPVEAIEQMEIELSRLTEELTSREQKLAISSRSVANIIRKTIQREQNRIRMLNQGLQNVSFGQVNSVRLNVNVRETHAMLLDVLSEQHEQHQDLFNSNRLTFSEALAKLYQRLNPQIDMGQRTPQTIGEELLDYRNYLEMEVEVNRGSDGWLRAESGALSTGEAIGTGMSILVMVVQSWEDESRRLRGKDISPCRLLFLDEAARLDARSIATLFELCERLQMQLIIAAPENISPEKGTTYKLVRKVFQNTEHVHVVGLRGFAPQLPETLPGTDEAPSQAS
The assay can be described thus: co-IP; MatPΔC18–Flag from cell lysate bound to anti-Flag M2 Affinity gel and washed; purified MukB, MukE, MukF added as indicated in 50 mM HEPES pH 7.5, 100 mM NaCl, 45 min, 4 °C; SDS-PAGE.

B1: MatPΔC18-6×His, purified (domain or fragment, E. coli, UniProt P0A8N0 1-132, looked up)
chain: MKYQQLENLESGWKWKYLVKKHREGELITRYIEASAAQEAVDVLLSLENEPVLVNGWIDKHMNPELVNRMKQTIRARRKRHFNAEHQHTRKKSIDLEFIVWQRLAGLAQRRGKTLSETIVQLIEDAENKEKY
notes: MatP, E. coli, truncated by its 18 C-terminal amino-acid residues; printed MW with 6×His 18.3 kDa; source: E. coli C3013I, pET vector, purified
With B1, the binding result in assay [1], in assay [2] and in assay [3] was “binds” throughout.

B2: MatPΔC18–Flag (domain or fragment, E. coli, UniProt P0A8N0 1-132, looked up)
chain: MKYQQLENLESGWKWKYLVKKHREGELITRYIEASAAQEAVDVLLSLENEPVLVNGWIDKHMNPELVNRMKQTIRARRKRHFNAEHQHTRKKSIDLEFIVWQRLAGLAQRRGKTLSETIVQLIEDAENKEKY
notes: MatP, E. coli, truncated by its 18 C-terminal amino-acid residues; printed MW with Flag 16.9 kDa; also called FLAG-tagged MatPΔC18
Consider B2, for which, in assay [4], the binding result is reported as “binds”.

The values are drawn from paper PMC4738335, “MatP regulates the coordinated action of topoisomerase IV and MukBEF in chromosome segregation” (Nature Communications, 2016).
